Measured values published in publication PMC10786891, “Massively parallel profiling of RNA-targeting CRISPR-Cas13d”.

T1: EsCas13d, nuclease-dead (Eubacterium siraeum, UniProt B0MS50, R295A;H300A;R849A;H854A)
T1 sequence: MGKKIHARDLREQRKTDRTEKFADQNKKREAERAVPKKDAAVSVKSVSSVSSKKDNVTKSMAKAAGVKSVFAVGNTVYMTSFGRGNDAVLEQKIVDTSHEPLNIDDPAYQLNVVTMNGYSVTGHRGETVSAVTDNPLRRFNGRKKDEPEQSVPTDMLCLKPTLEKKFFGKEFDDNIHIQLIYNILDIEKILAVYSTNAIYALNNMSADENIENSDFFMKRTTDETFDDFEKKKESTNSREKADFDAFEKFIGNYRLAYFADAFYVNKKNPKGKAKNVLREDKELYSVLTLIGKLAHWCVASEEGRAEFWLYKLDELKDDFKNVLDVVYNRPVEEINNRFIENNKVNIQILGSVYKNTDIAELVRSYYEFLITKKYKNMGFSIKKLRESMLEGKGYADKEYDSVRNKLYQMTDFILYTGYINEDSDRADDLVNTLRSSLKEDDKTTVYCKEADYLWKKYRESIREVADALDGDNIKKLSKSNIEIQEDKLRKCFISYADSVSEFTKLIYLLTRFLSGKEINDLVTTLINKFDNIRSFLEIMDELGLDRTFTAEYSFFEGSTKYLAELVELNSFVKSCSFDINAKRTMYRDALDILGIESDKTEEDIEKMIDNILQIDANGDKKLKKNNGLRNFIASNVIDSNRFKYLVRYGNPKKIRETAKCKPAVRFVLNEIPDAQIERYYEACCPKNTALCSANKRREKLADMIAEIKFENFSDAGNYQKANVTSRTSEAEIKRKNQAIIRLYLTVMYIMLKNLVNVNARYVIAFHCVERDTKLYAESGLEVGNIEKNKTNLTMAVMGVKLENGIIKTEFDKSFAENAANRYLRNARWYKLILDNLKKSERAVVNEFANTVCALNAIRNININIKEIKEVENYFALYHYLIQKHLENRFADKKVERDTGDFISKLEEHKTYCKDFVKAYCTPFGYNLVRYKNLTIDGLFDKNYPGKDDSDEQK


Target: T1, EsCas13d, nuclease-dead
Assay: crRNA (strand 1, pre-loaded); Mg2+; 40 mM Tris-HCl pH 7.5, 150 mM NaCl, 6 mM MgCl2, 1 mM DTT, 0.1% Tween-20, 0.2 mg/ml BSA; 25 C; 10 min per concentration, then washed
Settings: tags: His6-TwinStrep-SUMO cleaved; N-terminal SNAP kept (SNAP-Surface 488); label: 3' end held by stalled T7 RNA polymerase

Binder	Kd [nM]
target 1 MT 5'PFS GCG 3'PFS AGG (mixed) RNA 1: CACCCGUGCAAAAAUGCAGGGGUCUAAAACUGAGCGGAUAACCUCUCUAUGG RNA 2: GGGAAUGGAUCCACAUCUACGAAUUCGCGCCAUAGAGAGGUUAUCCGCUCAAGGAGAUCGGAAGAGCACACGU	100 ± 50
target 1 MT 5'PFS GGC 3'PFS AUC (mixed) RNA 1: CACCCGUGCAAAAAUGCAGGGGUCUAAAACUGAGCGGAUAACCUCUCUAUGG RNA 2: GGGAAUGGAUCCACAUCUACGAAUUCGGCCCAUAGAGAGGUUAUCCGCUCAAUCAGAUCGGAAGAGCACACGU	42.5 ± 8.5
target 1 MT 5'PFS CAA 3'PFS CCC (mixed) RNA 1: CACCCGUGCAAAAAUGCAGGGGUCUAAAACUGAGCGGAUAACCUCUCUAUGG RNA 2: GGGAAUGGAUCCACAUCUACGAAUUCCAACCAUAGAGAGGUUAUCCGCUCACCCAGAUCGGAAGAGCACACGU	~30.5
target 1 MT 5'PFS AGA 3'PFS CCG (mixed) RNA 1: CACCCGUGCAAAAAUGCAGGGGUCUAAAACUGAGCGGAUAACCUCUCUAUGG RNA 2: GGGAAUGGAUCCACAUCUACGAAUUCAGACCAUAGAGAGGUUAUCCGCUCACCGAGAUCGGAAGAGCACACGU	37 ± 10.5
target 1 MT 5'PFS GCC 3'PFS UAA (mixed) RNA 1: CACCCGUGCAAAAAUGCAGGGGUCUAAAACUGAGCGGAUAACCUCUCUAUGG RNA 2: GGGAAUGGAUCCACAUCUACGAAUUCGCCCCAUAGAGAGGUUAUCCGCUCAUAAAGAUCGGAAGAGCACACGU	16 ± 6
target 1 MT 5'PFS GCC 3'PFS UAU (mixed) RNA 1: CACCCGUGCAAAAAUGCAGGGGUCUAAAACUGAGCGGAUAACCUCUCUAUGG RNA 2: GGGAAUGGAUCCACAUCUACGAAUUCGCCCCAUAGAGAGGUUAUCCGCUCAUAUAGAUCGGAAGAGCACACGU	10.8 ± 2.45
target 1 MT 5'PFS UCC 3'PFS CCU (mixed) RNA 1: CACCCGUGCAAAAAUGCAGGGGUCUAAAACUGAGCGGAUAACCUCUCUAUGG RNA 2: GGGAAUGGAUCCACAUCUACGAAUUCUCCCCAUAGAGAGGUUAUCCGCUCACCUAGAUCGGAAGAGCACACGU	~15
target 1 MT 5'PFS GGC 3'PFS AUG (mixed) RNA 1: CACCCGUGCAAAAAUGCAGGGGUCUAAAACUGAGCGGAUAACCUCUCUAUGG RNA 2: GGGAAUGGAUCCACAUCUACGAAUUCGGCCCAUAGAGAGGUUAUCCGCUCAAUGAGAUCGGAAGAGCACACGU	22.5 ± 7
target 1 insG 3' of 19,insG 3' of 6 (mixed) RNA 1: CACCCGUGCAAAAAUGCAGGGGUCUAAAACUGAGCGGAUAACCUCUCUAUGG RNA 2: GGGAAUGGAUCCACAUCUACGAAUUCGUACCAUGAGAGAGGUUAUCCGGCUCACCGAGAUCGGAAGAGCACACGU	76 ± 9
target 1 MT 5'PFS GCC 3'PFS UAG (mixed) RNA 1: CACCCGUGCAAAAAUGCAGGGGUCUAAAACUGAGCGGAUAACCUCUCUAUGG RNA 2: GGGAAUGGAUCCACAUCUACGAAUUCGCCCCAUAGAGAGGUUAUCCGCUCAUAGAGAUCGGAAGAGCACACGU	21.8 ± 6.1
target 1 MT 5'PFS CAA 3'PFS CCG (mixed) RNA 1: CACCCGUGCAAAAAUGCAGGGGUCUAAAACUGAGCGGAUAACCUCUCUAUGG RNA 2: GGGAAUGGAUCCACAUCUACGAAUUCCAACCAUAGAGAGGUUAUCCGCUCACCGAGAUCGGAAGAGCACACGU	24 ± 6.5
target 1 insA 3' of 5,insC 3' of 3 (mixed) RNA 1: CACCCGUGCAAAAAUGCAGGGGUCUAAAACUGAGCGGAUAACCUCUCUAUGG RNA 2: GGGAAUGGAUCCACAUCUACGAAUUCGUACCAUAGAGAGGUUAUCCGACUCCACCGAGAUCGGAAGAGCACACGU	12.3 ± 2.2
target 1 MT 5'PFS GUA 3'PFS CAC (mixed) RNA 1: CACCCGUGCAAAAAUGCAGGGGUCUAAAACUGAGCGGAUAACCUCUCUAUGG RNA 2: GGGAAUGGAUCCACAUCUACGAAUUCGUACCAUAGAGAGGUUAUCCGCUCACACAGAUCGGAAGAGCACACGU	16.9 ± 2.35
target 1 MT 5'PFS GAC 3'PFS CCC (mixed) RNA 1: CACCCGUGCAAAAAUGCAGGGGUCUAAAACUGAGCGGAUAACCUCUCUAUGG RNA 2: GGGAAUGGAUCCACAUCUACGAAUUCGACCCAUAGAGAGGUUAUCCGCUCACCCAGAUCGGAAGAGCACACGU	~37
target 1 MT 5'PFS GUU 3'PFS AAC (mixed) RNA 1: CACCCGUGCAAAAAUGCAGGGGUCUAAAACUGAGCGGAUAACCUCUCUAUGG RNA 2: GGGAAUGGAUCCACAUCUACGAAUUCGUUCCAUAGAGAGGUUAUCCGCUCAAACAGAUCGGAAGAGCACACGU	52 ± 19
target 1 MT 5'PFS GCC 3'PFS UAC (mixed) RNA 1: CACCCGUGCAAAAAUGCAGGGGUCUAAAACUGAGCGGAUAACCUCUCUAUGG RNA 2: GGGAAUGGAUCCACAUCUACGAAUUCGCCCCAUAGAGAGGUUAUCCGCUCAUACAGAUCGGAAGAGCACACGU	16 ± 5.5
target 1 MT 5'PFS GGC 3'PFS AUU (mixed) RNA 1: CACCCGUGCAAAAAUGCAGGGGUCUAAAACUGAGCGGAUAACCUCUCUAUGG RNA 2: GGGAAUGGAUCCACAUCUACGAAUUCGGCCCAUAGAGAGGUUAUCCGCUCAAUUAGAUCGGAAGAGCACACGU	19.6 ± 4.75
target 1 MT 5'PFS GUC 3'PFS CCC (mixed) RNA 1: CACCCGUGCAAAAAUGCAGGGGUCUAAAACUGAGCGGAUAACCUCUCUAUGG RNA 2: GGGAAUGGAUCCACAUCUACGAAUUCGUCCCAUAGAGAGGUUAUCCGCUCACCCAGAUCGGAAGAGCACACGU	19 ± 9
target 1 MT 5'PFS GGC 3'PFS AUA (mixed) RNA 1: CACCCGUGCAAAAAUGCAGGGGUCUAAAACUGAGCGGAUAACCUCUCUAUGG RNA 2: GGGAAUGGAUCCACAUCUACGAAUUCGGCCCAUAGAGAGGUUAUCCGCUCAAUAAGAUCGGAAGAGCACACGU	16.6 ± 2.05
target 1 MT 5'PFS GUC 3'PFS CCG (mixed) RNA 1: CACCCGUGCAAAAAUGCAGGGGUCUAAAACUGAGCGGAUAACCUCUCUAUGG RNA 2: GGGAAUGGAUCCACAUCUACGAAUUCGUCCCAUAGAGAGGUUAUCCGCUCACCGAGAUCGGAAGAGCACACGU	14.8 ± 2.55
target 1 MT 5'PFS UCC 3'PFS CCG (mixed) RNA 1: CACCCGUGCAAAAAUGCAGGGGUCUAAAACUGAGCGGAUAACCUCUCUAUGG RNA 2: GGGAAUGGAUCCACAUCUACGAAUUCUCCCCAUAGAGAGGUUAUCCGCUCACCGAGAUCGGAAGAGCACACGU	18 ± 5
target 1 MT 5'PFS GUC 3'PFS CCA (mixed) RNA 1: CACCCGUGCAAAAAUGCAGGGGUCUAAAACUGAGCGGAUAACCUCUCUAUGG RNA 2: GGGAAUGGAUCCACAUCUACGAAUUCGUCCCAUAGAGAGGUUAUCCGCUCACCAAGAUCGGAAGAGCACACGU	~18
target 1 MT 5'PFS GCG 3'PFS AGU (mixed) RNA 1: CACCCGUGCAAAAAUGCAGGGGUCUAAAACUGAGCGGAUAACCUCUCUAUGG RNA 2: GGGAAUGGAUCCACAUCUACGAAUUCGCGCCAUAGAGAGGUUAUCCGCUCAAGUAGAUCGGAAGAGCACACGU	29.5 ± 7
target 1 MT 5'PFS GUA 3'PFS CAA (mixed) RNA 1: CACCCGUGCAAAAAUGCAGGGGUCUAAAACUGAGCGGAUAACCUCUCUAUGG RNA 2: GGGAAUGGAUCCACAUCUACGAAUUCGUACCAUAGAGAGGUUAUCCGCUCACAAAGAUCGGAAGAGCACACGU	19.6 ± 2.3
target 1 MT 5'PFS CAA 3'PFS AUU (mixed) RNA 1: CACCCGUGCAAAAAUGCAGGGGUCUAAAACUGAGCGGAUAACCUCUCUAUGG RNA 2: GGGAAUGGAUCCACAUCUACGAAUUCCAACCAUAGAGAGGUUAUCCGCUCAAUUAGAUCGGAAGAGCACACGU	9.8 ± 3.5
target 1 MT 5'PFS GUA 3'PFS CAU (mixed) RNA 1: CACCCGUGCAAAAAUGCAGGGGUCUAAAACUGAGCGGAUAACCUCUCUAUGG RNA 2: GGGAAUGGAUCCACAUCUACGAAUUCGUACCAUAGAGAGGUUAUCCGCUCACAUAGAUCGGAAGAGCACACGU	12 ± 1.15
target 1 MT 5'PFS UAU 3'PFS UCC (mixed) RNA 1: CACCCGUGCAAAAAUGCAGGGGUCUAAAACUGAGCGGAUAACCUCUCUAUGG RNA 2: GGGAAUGGAUCCACAUCUACGAAUUCUAUCCAUAGAGAGGUUAUCCGCUCAUCCAGAUCGGAAGAGCACACGU	36 ± 13.5
target 1 MT 5'PFS AGA 3'PFS CCU (mixed) RNA 1: CACCCGUGCAAAAAUGCAGGGGUCUAAAACUGAGCGGAUAACCUCUCUAUGG RNA 2: GGGAAUGGAUCCACAUCUACGAAUUCAGACCAUAGAGAGGUUAUCCGCUCACCUAGAUCGGAAGAGCACACGU	~64.5
